Results from patent US20240026407A1, “MODIFICATION OF SAPONINS” (GLAXOSMITHKLINE BIOLOGICALS SA, priority 2020, published 2024).

What was measured:
Assay type in all cases: biochemical, Quillaja saponaria
[1] = Experiment 4-4: screening of glucosidases for deglycosylation of QS-18 in crude bark extract (1 in 20 dilution) to QS-21; conditions: CBE 1 in 20 dilution, pH 6, 25 degC, 18 hours; % conversion of Middle Peak by UV HPLC
Experimental: Lysates were prepared as in Experiment 4-2.
Crude bark extract (CBE) was adjusted to pH 6 by dropwise addition of 2M NaOH with stirring. 25 uL of clarified lysate was transferred to a reaction plate, 22.5 ul of 100 mM potassium phosphate buffer pH 6 was added, 2.5 ul CBE at pH 6 was added. Reaction plates were sealed, incubated at 25 degC with shaking for 18 hours, then quenched by addition of 50 uL acetonitrile (MeCN). Quenched reaction plates were re-sealed and incubated at 20 degC with shaking for 10 min. The reaction plates were centrifuged (10 min, 4 degC) and analysed by UV HPLC with the method below:
Three key peaks of interest are apparent using this chromatography: Left Peak (retention time approximately 2.30-2.35 min) comprising mainly QS-17 family components; Middle Peak (retention time approximately 2.37-2.42 min) comprising mainly QS-18 family components and desglucosyl-QS-17 family components; and Right Peak (retention time approximately 2.44-2.50 min) comprising mainly QS-21 family components. Peak identity was supported by MS/MS.
Enzyme activity is calculated as the % conversion of the Middle Peak present in the crude bark extract: […]

[2] = Experiment 4-2: screening of glucosidases for deglycosylation with purified QS-18 (1 mg/ml) at pH 6 and 30 deg C; conditions: pH 6, 30 degC, 18 hrs, clarified lysate, LCMS/MS
Experimental: Lysates were prepared in an identical manner to Experiment 4-1 above, except the lysis buffer was prepared in 100 mM potassium phosphate buffer pH 6. QS-18 solution was prepared by dissolving QS-18 in 100 mM potassium phosphate buffer pH 6 (2 mg/mL).
12 uL clarified lysate was transferred into fresh 96 well PCR plates. 12 uL QS-18 solution was added (1 mg/ml final concentration), plates sealed and incubated overnight (30° C.) for 18 hrs. After quenching with 25 uL MeCN and shaking for 10 mins (RT), samples were analysed using the LC-MS/MS protocol described in Experiment 4-1 and enzyme activity determined in an analogous manner.

[3] = Experiment 4-1: screening of glucosidases for deglycosylation with purified QS-18 (0.04 mg/ml) at pH 7.5 and room temperature; conditions: pH 7.5, room temperature, 20 h, clarified E. coli lysate, QS-18 2150 to QS-21 1988 by LCMS/MS
Experimental: Nucleotide sequences were sub-cloned into pET24b+ for expression. 10 uL of E. coli cells (One Shot® BL21(DE3) chemically competent E. coli) were transferred to each well of a 96 well PCR plate (prechilled on ice). 10 uL autoclaved water was added to the DNA, resuspended by pipetting, and 1 uL of plasmid DNA (15-30 ng) was transferred to the competent cells. Immediately after addition, the resulting mixture was mixed by pipetting. Cells were heat shocked by placing the plate in a thermal cycler at 42° C. for 30 seconds then transferred directly to an ice bath for 2 min. 100 uL sterile Lysogeny Broth (LB) medium was added to each well containing transformed cells. The content of each plate was transferred into a 96-deep well plate pre-aliquoted with 400 uL LB and the plate was incubated at 37° C. with shaking and 85% humidity for 1 hour. After outgrowth, 500 uL of sterile LB containing 100 ug/mL kanamycin was added to the plates containing cells and plates incubated at 37° C. with shaking overnight (18 hours) with humidity control (85%).
1000 mLs of Overnight Express Media was supplemented with 1 mL kanamycin 50 mg/mL and 20 mL of 50% v/v glycerol added (50 ug/mL kanamycin final and 1% glycerol). 96-Well Assay Block 2 mL plates were aliquoted with 380 uL of media per well. Pre-inoculum (20 uL) from transformation plates was added. The plates were sealed appropriately and incubated at 37° C. at 300 with shaking for 2 h. After 2 h the temperature was lowered to 20° C. and incubation continued for 20 h.
The liquid cultures were centrifuged for 10 minutes at 4° C. The supernatant was discarded, plates blotted on an absorbent material to remove residue and the plates frozen at −80° C.
Lysis buffer was prepared according to the following protocol: • 1. Polymyxin B sulphate (0.5 mg/mL) was suspended in 100 mM potassium phosphate pH 7.5 • 2. The mixture was sonicated until polymyxin B sulphate had dissolved • 3. Lysozyme (1 mg/mL) and benzonase (0.1 uL/mL lysis buffer) were added
2 copies of each cell pellet plate were removed from −80 degC freezer and allowed to thaw. 200 uL of lysis buffer was added to each well of one copy of the cell pellet plates. Plates were shaken at room temperature for 10 mins. 190 uL of cell pellet/lysis buffer was transferred to a corresponding fresh cell pellet plate. These plates were incubated at room temperature with shaking for 2 hours. Lysate was clarified by centrifugation (10 min, 4 degC).
QS-18 was obtained by analogous methods to Example 3, collecting a QS-18 containing phenyl fraction following phenyl treatment (presence of m/z corresponding to key components was confirmed by MS and the phenyl fraction then used without further treatment). QS-18 solution was prepared by diluting aqueous QS-18 (ca 1 mg/mL) with 100 mM potassium phosphate pH 7.5 to 0.2 mg/ml. 40 uL clarified lysate was transferred into fresh 96 well PCR plates. 10 uL QS-18 solution added to each well of lysate to a final concentration of 0.04 mg/ml. Incubated at room temperature with shaking for 20 h. Quenched with 50 uL MeCN and shaken at room temperature for 10 mins. Samples were analysed by LC-MS/MS using a Waters Acquity H class coupled to a Waters Xevo Tandem Quadrupole (TQD) Mass Spectrometer.
Enzyme activity was calculated as: […]
Candidate enzymes with % conversion >0.72%, i.e. >3 S.D. above negative control, were considered to be positive hits and are listed below in Table 7. Sample results are shown in FIG. 10 for a QS-21 standard, FIG. 11 for negative control and FIG. 12 for treatment with the glucosidase of SEQ ID No. 262.

Row | Molecule | Expt 4-4 % conv [1] [%] | Expt 4-2 % conv [2] [%] | Expt 4-1 % conv [3] [%]
1 | 302 (protein, listed as Rhodococcus sp.) MTTRPDLTLEQQAALLSGHDFWSTEAIEEAGIPSVVLTDGPHGVRYQSGDSDHLGLHASLPATCFPLAVAVGSSWDRSVAEEVGRAVGREARALGVHVVLGPGVNIKRSPLCGRNFEYYSEDPLLSGVLGAAHVRGLQSVGVGACVKHFAANNQETDRMRVSADVDDRTLREIYLPAFERVVAEARPAAVMCSYNKVNGVSAAENRWLLTEVLREQWGFAGVVVSDWGAVADRVAGVTAGLDLEMPGSGGGTDRQVVDAVRDGRLDPRLVEASAHRVLALSDLVRPAAGDLDLDGQHALARRLAADCAVLLKNADGVLPLRRGQHVAVLGSFATTPRFQGGGSSHIAPTRVDPALDAVRALAAAHGLTVSAADGFPLGADGDARALLDEAVRVAAAADVAVVFAGLTEREESEGFDRDTLDLPPVQVALVRAVARAAPRTVVVLAHGGVVSLEGWHDEVDAILDGWLLGQAGGSAIADLLLGVATPSGHLAETVPLRLEDTPSYLNFPGEQGHVRYGEGVMVGYRGYETLRRAVRYPFGHGLSYTTFVTESLDVALGGDGTVAVRVRVRNAGDRAGKHVVQMYVATDAGPVRRPVRELRAFEKIELAPGEARDVELTLERRAFAYWDVELDDWVVAPGEYAIQVCADAATVLEARTVTLAGDVVSRPLSMESTVGEWFSHPTVGPAFLEVLAGATGSAPTPDPQEHAGLLRMVESIRMAQFLTFLPIPVPQEKLDELLALGGTVANSATDAAAGNRDHPAPTPPGQPGGP | <3 | 2.1 | 17.2
2 | 319 (protein, Colletotrichum gloeosporioides) MTAAPSDKELLALLSQLTTAEKVLLLSGKSTWETPEIERLHVPSLKVSDGPNGARGAQFTDGTTAACFPACVSLAATFNRSLARQIGVALGEETQTKGAYVLLGPTVCPHRSPLGGRNFESFSEDPFLTGELASEYVVGLQSQRVAATVKHFAINEQDTRRFTVNETVSERAMREIYLRPFEIVVKKADPWCIMTSYPKVNGAYVDDQTTFLKDILRDEWKFKGLVMTDWGAASAAIANGIRNGLDLEMPGPPHRRQPAVVHKLIEDGKVDVKDIDDRVLPLLKLLRQTGKFTDRREPVPERAISRPEHEKLIREAGGEGVVLLKNSDGALPLKPSHLQNIAVLGPLAKHAAAHGGGSASLNCHYKISPFDAIKSRLPDSKLSYSKGAHVFRAYPDFVAGTRNRLGNPGFAADFYENLNLTGEPFYTEEYPRGSFMTLMNENVVTAKSARLSTAYSPNVSGKHYLSFSGMGPARLFINGEFQGEIKETAEAMSFLLGVQEERHLQYDFVTGKTYDIVIESTISPNPNAELYLADDQIAVHLGFVSQQEMDADVLSEAVSFAKDADVALIFVGNTPQWETEGQDMATMTLPADGSQDKLIAEVAKVNPNTIVIITTGVPVELPWLENVAAVVQAWYGGQETGNSILDVLLGEVNPSGRLPMSWPKKNEHTACYGHFGLDSWDSREVEYVEGVNVGYRHFDSQYGTEQEVMFPFGYGLSYSTFEHSACALSGTLDANDENAKITVAVTVHNTSDVAGSEVVQVYVTPPKSRTGVERPPKALVAFEKIHLNPGAQKDIQLTFKRDGAAFWSEARKLWEVEAGEHEVHVSTSSSPQDIKSTLVLGITKGFTFHP | <3 | 0.4 | 10.2
3 | 4 (protein, listed as Microbacterium azadirachtae) MTLPPFDVDTVLAALTLEEKASLLSGLDDWYTQPLDRPGLPQRVPSIEVGDGPHGLRKETGVDMVWVPATGFPTASAMGASWDRQLMRRVAAAIGEEARAEGVQVVLGPGVNMKRSPLCGRNFEYFSEDPVHSGELGAAYVDGVQAVGVGTSLKHFAANNQEIERTRISVVADERTLRETYLSAFERVVTKADPWTVMCSYNRLLGVHASQNHWLLTEVLRDEWGYRGAVVSDWNAVHDRVAALRAGLDLEMPGTQGATDAEIVAAVQDGQLDIGVVDAAARRVLELVARAYPGADRVNGAVMDLGHAAGDRLTAEQLRLLRAAEHHELAREAAIGSMTLLRNETIPGGGGPALPLEEHSEGAVAVVGAFAEHARVQGGGSSGVDPTRIDAPLAAIRAIANGRVHYAPGYIYEVKNAYQDDNLAILAAHGVVTEEEKPRVARRSATLAKELQLAEAVQHLGKRPLSAAAERLIDEAAVIAGQAETIVVFAGLPLSYEQEANDRDTLALPADQVALILRMADVREKTGARLVVVLSNGSPVTMDPWHDRVDAIVEAWLGGQAVGSAVAEVLFGRSNPSGKLAETFPLALEDTPGFPNWLGERGTVLYGEGVFIGYRWYDALRREVRYPFGHGLSYTTFSYSDLRVDLVDAEVGRVTVTCTVTNTGDVAGQEVVQLYVGDPDAEVQRPLRELRGFEKVKIEAGESTRVRFELLNRDFAYWDSAAVRPDGKTGLWRREGGEFRIEVGASSRDIRLSESIVLSDDPSIPPLVPDAELLDIAASRFVQGHAG | – | 0.6 | 0.4
4 | 324 (protein, listed as Kluyveromyces marxianus) MSKFDVEQLLSELNQDEKISLLSAVDFWHTKKIERLGIPAVRVSDGPNGIRGTKFFDGVPSGCFPNGTGLASTFDRDLLETAGKLMAKESIAKNAAVILGPTTNMQRGPLGGRGFESFSEDPYLAGMATSSVVKGMQGEGIAATVKHFVCNDLEDQRFSSNSIVSERALREIYLEPFRLAVKHANPVCIMTAYNKVNGEHCSQSKKLLIDILRDEWKWDGMLMSDWFGTYTTAAAIKNGLDIEFPGPTRWRTRALVSHSLNSREQITTEDVDDRVRQVLKMIKFVVDNLEKTGIVENGPESTSNNTKETSDLLRKIAADSIVLLKNKNNILPLKKEDNIIVIGPNAKAKTSSGGGSASMNSYYVVSPYEGIVNKLGKEVDYTVGAYSHKSIGGLAESSLIDAAKPADAENSGLIAKFYSNPVEERSDDEEPFHVTKVNRSNVHLFDFKHEKVDPKNPYFFVTLTGQYVPQEDGDYIFSLQVYGSGLFYLNDELIIDQKHNQERGSFCFGAGTKERTKKLTLKKGQVYNVRVEYGSGPTSGLVGEFGAGGFQAGVIKAIDDDEEIRNAAELAAKHDKAVLIIGLNGEWETEGYDRENMDLPKRTNELVRAVLKANPNTVIVNQSGTPVEFPWLEDANALVQAWYGGNELGNAIADVLYGDVVPNGKLSLSWPFKLQDNPAFLNFKTEFGRVIYGEDIFVGYRYYEKLQRKVAFPFGYGLSYTTFELDISDFKVTDDKIAISVDVKNTGDKFAGSEVVQVYFSALNSKVSRPVKELKGFEKVHLEPGEKKTVNIDLELKDAISYFNEELGKWHVEAGEYLVSVGTSSDDILSVKEFKVEKELYWKGL | <3 | 0.9 | 13.6
